The values below come from the RNAGym collection of RNA variant scans (doi:10.1073/pnas.2313332121).

To fix the notation:
B1: TPR t1 (parent)
chain: GACCAAUCUGCCCUCAGAGCUCGAGAACAUCUUCGGAUGCAGAGGAGGCAGGCUUCGGUGGCGCGAUAGCGCCAACGUCCUCAACCUCCAAUGCAUCCCACCACAUGAUGAUGCCUGAAGAGCCUUGGUUUUUUG

The variants in this data set derive from B1. The experiment in a line: polymerase ribozyme fitness, log enrichment relative to wild type (log ratio); higher = more active; in vitro selection for triplet polymerase activity. The method in brief: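 In triplicate, a single round of in vitro selection was run on each mutant library, PCR-built and transcribed, covering one subunit of a heterodimeric triplet polymerase ribozyme. Frozen incubation at −7 °C followed annealing with a biotinylated primer, partner subunit and triplets, and extended constructs were then gel-excised, streptavidin-captured and taken through RT-PCR. Fitness is the logarithm of genotype enrichment over wild-type enrichment, from inverse-variance-weighted replicate averages of Illumina-sequenced inputs and outputs. […] only genotypes with ≥10 input reads and ≥1 read per output were kept.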
On to GACCAAUCUGCCCUAAGAGCUCGAGAACUUCUUCGGAUGCAGAGGAGGCAGGCUUCGGUGGCGCGAUAGCGCUAACGUCCUCAACCUCCAAUGCAUCCCACCACAUGAUGAUGCUUGAAGAGCCUUGGUUAUUUG, for which the “polymerase ribozyme fitness (log ratio)” value is -2.29.

Turning to GACCAAUCUGCCCUAAGAGCUCGAGAACCUCUUCGGAUGCAGAGGAGGCAGGCUUCGGUGGCGCGAUAGCGCCAACGACCUCAACCUCCAAUGCAUCCCACCACAUGAUGAUGCCUGAAGAGCCUUGGUUUUUUG, the “polymerase ribozyme fitness (log ratio)” value is -4.3. As for GACCAAUCUGCCCGCAGAGCUCGAGAACAUCUUCGGAUGCAGAGGAGGCAGGCUUCGGUGGCGCGAUAGCGCCAACGUCCUCAACCUCCAAUGCAUCCCACCACAUGAUGAAGCCUGAAGAGCCUUGGUUUUUUG, the figure is -0.444; as for GACCAAUCUGCCCUAAGAGCUCGAGAACAUCUUCGGUUGCAGAGGAGGCAGCCUUCGGUGGCACGAUAGCGCCAACGUCCUCAACCACCAAUGCAUCCCACCACAUGAUGAUGCCUGAACAGCCUUGGUUUUUUG, -4.33. As for GACCAAUCUGCCCGCAGAGCUCGAGAACAUCUUCGGAUGCAGAGGAGGCAGGCUUCGGUGGCGCGAUAGCGCCAACGUCCUCAACCUCCAAUGCAUCCCACCACAUGAUGAUGCCUGAAGAGCCAUGGUUUUUUG, the figure is -2.09; as for GACCAAUCUGCCCGCAGAGCUCGAGAACAUCUUCGGAUGCAGAGGAGGCAGGCUUCGGUGGCGCGAUAGGGCCAACGUCCUCAACCUCCAAUGCAUCCCACCACAUGAUGAUGCCUGAAGAGCCUUGGUUUUUUG, -3.6; as for GACCAAUCUGCCCUAAGAGCUCGAGACCAUCUUCGGAUGCAGAGGAGGCAGGCUUCGGUGGCGCGAUAGCGCCAACGUCCUCAACCUCCAAUGCAUCCCACCACAUGAUGAUGCCUGAAGAGCCUUGGUUUUUUG, -4.33.

Turning to GACCAAUCUGCCCUAAGAGCUCGAGGACAUCUUCGGAUGCAGAUGAGGCAGGCUUCGGUGGCGCGAUAGCGCCAACGUCCUCAACCUCAAAUGCAUCCCACCACAUGAUGAUGCCUGAACAGCCUUGGUUUUUUG, the “polymerase ribozyme fitness (log ratio)” value was -5.42. The result for GACCAAUCUGCCCUAAGAGCUCGAGAACAUCUUCGGCUGCAGAGGAGGAAGGCUUCGGUGGCGCGAUAGCGGCAACGUCCUCAACCUCCAAUGCAUCCCACCACAUGAUGAUGCCUGAAGAGCCUUGGUUUUUUG reads -2.75; that for GACCAAUCUGCCCUAAGAGCUCGAGAACAUCUUCGGGUGCAGAGUAGGCAGGCUUCGGUGGCGCGAUAGCGCCAACGUCCUCAACCUCCAAUUCAUCCCACCACAUGAUGACGCCUGAAGACGCAUGGUUUUUUG, -5.64.

For GACCAAUCUGCCCGCAGAGCUCGAGAACAUCUUCGGAUGCAGAGGAGGCAGACUUCGGUGGCGCGAUAGCGCCAACGUCCUCAACCUCCAAUACAUCCCACCACAUGAUGAUGCCUGAAGAGCCUUGGUUUUUUG, the “polymerase ribozyme fitness (log ratio)” value is -3.09. Consider GACCAAUCUGCCCUAAGAGCUCGUGAACAUCUUCGGAUGCAGAGGAGGCAGGCUUCGGUGGCGCGAUAGUGCCAACCUCCUCAACCUCCAAUGCAUCCCACCACAUGAUCAUGCCUGAAGAGCCUUGGUUUUUUG, for which the “polymerase ribozyme fitness (log ratio)” value is -6.25. On to GACCAAUCUGCCCUAAGAGCUCGAGACCAUCUUCGGAUGCAGAGGAGGCAGGCUACGGUGGCGCGAUAGCGCCAACGUCCUCAACCUCCAAUGCAUCCCACCACAUGAUGAUGCCUGAAGAGCCUUGGUUUUUUG, for which the “polymerase ribozyme fitness (log ratio)” value is -5.44. As to GACCAAUCUGCCCGCAGAGCUCGAGAACAUCUUCGGAUGCAGAGGAGGCAGGCUUCGGUGACGCGAUAGCGCCAACGUCCUCAACCUCCAAUGCAUCCCACCACAUGAUGAUGCCUGAAGAGCCUUGGUUUUUUG, the “polymerase ribozyme fitness (log ratio)” value was -1.48. For GACCAAUCUGCCCUAAGAGCUCGAGAACUUCUUCGGAUGCAGAGGAGGCAGGCUUCGGUGGCGCGAUAGCGCCAACGUCCUCAACCUCCAAUGCAUCCCACCACAUGAUGAUGCCUGAAGAGCCUUGGUUUUUUG, the “polymerase ribozyme fitness (log ratio)” value is -4.28.

Turning to GACCAAUCUGCCCGCAGAGCUCGAGAACAUCUUCGGAUGCAGAGGAGGCAGGCUUCGGUGGCGCGAUAGCUCCAACGUCCUCAACCUCCAAUUCAUCCCACCACUUGAUGAUGCCUGAAGAGCCUUGGUUUUUUG, the “polymerase ribozyme fitness (log ratio)” value was -6.14.

For the variant GACCAAUCUGCCCGCAGAGCUCGAGAACAUCUUCGGAUGCAGAGGAGGCAGGCUUCGGUGUCGCGAUAGCGCCAACGUCCUCAACGUCCAAUGCAUCCCACCACAUGAUGAUGCGUGAAGAGCCUUGGUUUUUUG, the “polymerase ribozyme fitness (log ratio)” value is -5.92. GACCAAUCUGCCCUAAGAGCUCGAGAACAUCUUCGGUUGCAGAGGAGGCAGGCUUCGGUGGCGCGAUAGCGCCAAUGUCCUCAACCUCCAAUGCAUCCCACCACAUGAUGAUGCCUGAAGAGCCUUGGUUUUUUG: the “polymerase ribozyme fitness (log ratio)” value was -2.8. The result for GACCAAUCUGCCCUAAGAGCUCGAGAACAUCUUCGGUUGCAGAGGAGGCAGGCUUCGGUGGCGCGAUAGCGCCAAGGUCCUCAACCUCCAAUGCAUCCCACCACAUGAUGAUGCCUGAAGAGCCUUGGUUUUUUG reads -2.94; that for GACCAAUCUGCCCGCAGAGCUCGAGAACAUCUUCGGAUGCAGAGGAGGCAGGCUUCGGUGGUGCGAUAGCGCCAACGUCCUCAACCUCCAAUGCAUCCCACCACAUGAUGAUGCCUGAAGAGCCUUGGUUUUUUG, -1.97; that for GACCAAUCUGCCCGCAGAGCUCGAGAACAUCUUCGGAUGCAGAGGAGGCAGGCUUCGGUGGCGCGAUAGCUCCAACGUCCUCAACCUCCAAUGCAUCCCACCACAUGAUGAUGCCUGAAGAGCCUUGGUUUUUUG, -2.33. Regarding GACCAAUCUGCCCGCAGAGCUCGAGAACAUCUUCGGAUGCAGAGGAGGCAGGCUUCGGUGGCGCGAUAGCGCCAACGUCCUCAACCUCGAAUGCAUCCCACCACAUGAUGAUGCCUGAAGAGCCUUGGUUUUUUG, the “polymerase ribozyme fitness (log ratio)” value is -3.56.

For the variant GACCAAUCUGCCCGCAGAGCUCGAGAACAUCUUCGGAUGCAGAGGAGGCAGGCUCCGGUGGCGCGAUAGAGCCAACGUCCUCAACCUCCAAUGCAUCCCACCACAUGAUGAUGCCUGAAGAGCCUUGGUUUUUUU, the “polymerase ribozyme fitness (log ratio)” value was -4.4. In the case of GACCAAUCUGCCCUAAGAGCUCGAGAGCAUCUUCGGAUACAGAAGAGGCAGGCUUCGGUGGCGCGAUAUCUCCAACGUCCUUAACCUUCAAUGCAUCCCACUACAUGAUGAUGCCUGAAGAGCCUUGGUUUUUUG, the “polymerase ribozyme fitness (log ratio)” value is -6.86.

Consider GACCAAUCUGCCCUAAGUGCUCGAGAACAUCUUCGGAUGCAGAGGAGGCAGGAUUCGGUGGCGCGAUAGCGCCAACGUCCUCAACCUCCAAUGCAUCCCACCACAUGAUGACGCCUGAAGAGCCUUAGUUUUUUG, for which the “polymerase ribozyme fitness (log ratio)” value was -5.64. As to GACCAAUCUGCCCGCAGAGCUCGAGAACAUCUUCAGAUGCAGAGGGGGCAGGCUUCGGUGGCGCGAUAGCGCCAACGUCCUCAACCUCCAAUGCAACCCACCACAUGAUGAUGUCUGAAGAGCCUUGGUUUUUUG, the “polymerase ribozyme fitness (log ratio)” value is -5.86.

Turning to GACCAAUCUGCCCUAAGAGCUCGAGACCAUCUUCGGAUGCAGAGGAGGCAGGCUGCGGUGGCGCGAUAGCGCCAACGUCCUCAACCUCCAAUGCAUCCCACCACAUGAUGUUGCCUGAAGAGCCUUGGUUUUUUG, the “polymerase ribozyme fitness (log ratio)” value was -6.51. GACCAAUCUGCCCGCAGAGCUCGAGAACAUCUUCGGAUGCAGAGGAGGCAGGCUUCGGUGGUGCGAUAGCGCUAACGUCCUCAACCUCCAAUGCAUCCCACCACAUGAUGAUGCCUGAAGAGCCUUGGUUUUUUG: the “polymerase ribozyme fitness (log ratio)” value was -2.29. As to GACCAAUCUGCCCGCAGAGCUCGAGAACAUCUUCGGAUGCACAGGCGGCAGGUUUCGGUGGCGCGAUAGCGCCAACGUCCUCAACCUCCAAUGCAUCCCACCACAUGAUGAUGCCUGAAGAGCCUUGGUUUUUUG, the “polymerase ribozyme fitness (log ratio)” value is -4.19.

For GACCAAUCUGCCCGCAGAGCUCGAGAACAUCUUCGGAUGCAGAGCAGGCAGGCUUCGGUGGCGCGAUAGCGCCAACGUCCUCAACCUCCAAUGCAUCCCACCACAUGAUGAUGCCUGAAGAGCCUUGGUUUUUUG, the “polymerase ribozyme fitness (log ratio)” value was -3.41. GACCAAUCUGCCCGCAGAGCUCGAGAACAUCUUCGGAUGCAGAGGAGGCAGGCUUCGGUGGCGCGAUAGCGCCAAAGUCCUCAACCUCCAAUGCAUCCCACCACAUGAUGAUGCCUGAAGAGCCUUGGUUUUUUG: the “polymerase ribozyme fitness (log ratio)” value was -2.76. In the case of GACCAAUCUGCCCGCAGAGCUCGAGAACAUCUUCGGAUGCAGAGGAGGCAGGCUUCGGUGGCGCGAUAGCGACAACGUCCUCAACCUCCAAUGCAUCCCACCACAGGAUGAUGCCUGAAGAGCCUUGGUUUUUUG, the “polymerase ribozyme fitness (log ratio)” value is -3.74.

For GACCAAUCUGCCCUAAGUGCUCGAGAACAUCUUCGGAUGCAGAGGAGGCAGGCUUCGGUGGCGCGAUAGCGCCAACGUCCUCAACCUCCAAUGCAUCUCACCACAUCAUGAUUCCUGAAGAGCCGUGGUUUUUUG, the “polymerase ribozyme fitness (log ratio)” value was -6.57.

With GACCAAUCUGCCCGCAGAGCUCGAGAACAUCUUCGGAUGCAGAGGAGGCAGGCUUCGGUGGCGCGAUAGCGUCAACGUCCUCAACCUCCAAUGCAUCCCACCACAUGAUGAUGCCUGAAGAGCCUUGGUUUUUUU, the “polymerase ribozyme fitness (log ratio)” value was -2.55. Take GACCAAUCUGCCCGCAGAGCUCGAGAACAUCUUCGGAUGCAGAGGAGGCAGGCUUCGGUGGCGCGAUAGCGCCAACGUCCUCAACCUCCAAUGCAACCCACCACAUGAUAAUGCCUGAAGAGCCUUGGUUUUUUG: the “polymerase ribozyme fitness (log ratio)” value is -3.75. The result for GACCAAUCUGCCCGCAGAGCUCGAGAACAUCUUCGGAUGCAGAGGAGGCAGGCUUCGGUGGCGCGAUAGCGCCAACGUCCUCAACCUCAAAUGCAUCCGACCACAUGAUGAUCCUUGAAGAGCCUUGGUUUUUUG reads -7.29; that for GACCAAUCUGCCCGCAGAGCUCGAGAACAUCUUCGGAUGCAGAGGAGGCAGGCUUCGGUGGCGCGAUAGCGCCAACGUCCUCAAGCUCCAAUGCCUCCCAGCACAUGAUGAUGCCUGAAGAGCCUUGGUUUUUUG, -6.61. With GACCAAUCUGCCCGCAGAGCUCGAGAACAUCUUCGGAUGCAGAGGAGGCAGGCUUCGGUGGCGCGAUAGCGCUAACGUCCUCAACCUCCGAUGCAUCCCACCACAUGAUGAUGCCUGAAGAGCAUUGGUUUUUUG, the “polymerase ribozyme fitness (log ratio)” value was determined as 1.54. Regarding GACCAAUCUGCCCGCAGAACUCGAGAACAUCUUCGGAUGCAAAGGAGGCAGGCUUAGGUGGCGCGAUAGCGCCAACGUCCUCAACCUCCAAUCCAUCCCACCACAUGAUGAUGCCUGAAGAGCCUUGGUUUUUUG, the “polymerase ribozyme fitness (log ratio)” value is -5.15. With GACCAAUCUGCCCUAAGAGCUCGAGAACAUCUUCGGAUGCAGAGGAGGCAGGCUUCGGUGGCGCGAUAGCGCCAACGUCCUCAACCUCCAAUGCAUCCCACCACAUGAUGAUGCCUGAAGAGCCUUGGUUUUUUG, the “polymerase ribozyme fitness (log ratio)” value was -1.85. For GACCAAUCUGCCCGCAGAGCUCGAGAACAUCUUCGGAUGCAGAGGAGGCAGGCUUCGGUGGCGCGAUAUCGCCAACGUCCUCAAACUCCAAUGCAUCCCACCACAUGAUGAUGCCUGAAGAGCCUUGGUUUUUUG, the “polymerase ribozyme fitness (log ratio)” value is -2.32.

With GACCAAUCUGCCCGCAGAGCUCGAGAACAUCUUCGGAUGCAGAGGAGACAGGCUUCGGUGGCGCGAUAGCGCCAACGUCCUCAACCUCCAAUGCAUCCCACCAAAUGAUGAUGCCUGAAGAGCCUUGGUUUUUUG, the “polymerase ribozyme fitness (log ratio)” value is -3.69.
